For the test, the target named is HRP2 (hepatoma-derived growth factor-related protein 2) IBD (UniProt Q7Z4V5). Nature of the test: biotin-peptide streptavidin pull-down, GST blot. Particulars: reference: unphosphorylated IBM peptide; sites S323.
UniProt Q7Z4V5, sequence (Q7Z4V5 whole entry, looked up): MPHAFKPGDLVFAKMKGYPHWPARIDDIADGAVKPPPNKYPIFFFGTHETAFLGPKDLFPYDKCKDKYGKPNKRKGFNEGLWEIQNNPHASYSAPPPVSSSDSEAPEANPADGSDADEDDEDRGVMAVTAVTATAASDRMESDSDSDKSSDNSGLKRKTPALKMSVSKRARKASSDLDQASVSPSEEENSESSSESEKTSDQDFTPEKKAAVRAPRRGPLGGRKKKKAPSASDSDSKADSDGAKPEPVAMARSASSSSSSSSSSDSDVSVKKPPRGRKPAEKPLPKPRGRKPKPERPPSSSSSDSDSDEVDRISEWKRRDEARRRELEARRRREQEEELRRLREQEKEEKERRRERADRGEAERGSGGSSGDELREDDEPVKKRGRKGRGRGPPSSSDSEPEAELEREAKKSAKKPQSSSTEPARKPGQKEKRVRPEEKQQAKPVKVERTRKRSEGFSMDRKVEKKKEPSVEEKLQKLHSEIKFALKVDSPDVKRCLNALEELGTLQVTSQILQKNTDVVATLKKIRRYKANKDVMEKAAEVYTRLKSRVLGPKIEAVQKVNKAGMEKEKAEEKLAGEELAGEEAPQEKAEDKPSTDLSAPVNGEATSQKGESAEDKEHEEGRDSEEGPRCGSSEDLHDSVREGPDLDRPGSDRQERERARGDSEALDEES

Regarding “DPF3a (BAF45c) IBM peptide (from UniProt Q92784-2) pS323 IBM peptide”, the “binding against the reference” value was “stronger”.

(Values after article PMC7337902.)
